Measurements taken from US7320785B2, “Compositions and methods for modulation of DARPP-32 phosphorylation” (The Rockefeller University, priority 2001, dated 2008).

Tests used:
Assay type in all cases: biochemical, rat
phospho-Ser137-DARPP-32 [1] = test: Dephosphorylation of phospho-Ser137-DARPP-32 by recombinant PP2C isoforms; settings: phospho-Ser137-DARPP-32 as substrate; Mn^2+ or Mg^2+
phospho-Ser137-DARPP-32 [2] = test: as above; settings: [^32P]phospho-Ser137 DARPP-32 as substrate; in the presence of 10 mM Mn^2+
Method: The activity of PP2C isoforms using ^32P-DARPP (phosphorylated at Ser137) was assayed at 37° C. in a reaction mixture containing 25 mM Tris-HCl, pH 7.5, 10 mM MnCl2, 1% BSA, and […] substrate, in a total volume of […]. Reactions were stopped by addition of […] of 50% trichloroacetic acid. Samples were then incubated on ice for 30 min and centrifuged at 10,000 g for 10 min at 4° C. Radioactivity recovered in the supernatant was measured by Cerenkov counting in a scintillation counter (Beckman).
(§1) Kinetic parameters (Km and Vmax) were determined from Lineweaver-Burk plots.
Legend Table 8. Enzymatic activities of PP2C isoforms assayed using [^32P]phospho-Ser137 DARPP-32 as substrate. Phosphatase activity was measured by the release of ^32P, and Km and Vmax values were calculated from Lineweaver-Burk plots of the data.

[3] = pNPP hydrolysis by recombinant PP2C isoforms (phosphatase assay); settings: for Vmax / kcat / Km: pNPP as substrate; for Km: 37° C.
Method: The activity of PP2C isoforms using pNPP as substrate was assayed as previously described (Brumel et al., 1997). […] The reaction was stopped by addition of 1 ml of 0.1 M NaOH, and the initial rate of p-nitrophenol release was determined spectrophotometrically at 405 nm (using a molar extinction coefficient of 18 000 M−1 cm−1).
as §1
Legend Table 7. Enzymatic activities of PP2C isoforms assayed using pNPP as substrate. Phosphatase activity was measured using pNPP as substrate by the change in absorbance at 405 nm. Km and Vmax values were calculated from Lineweaver-Burk plots of the data.

B1: PP2Ca: recombinant his-tagged alpha isoform of protein phosphatase 2C cloned from rat striatum (protein)
chain: MGAFLDKPKMEKHNAQGQGNGLRYGLSSMQGWRVEMEDAHTAVIGLPSGLETWSFFAVYDGHAGSQVAKYCCEHLLDHITNNQDFKGSAGAPSVENVKNGIRTGFLEIDEHMRVMSEKKHGADRSGSTAVGVLISPQHTYFINCGDSRGLLCRNRKVHFFTQDHKPSNPLEKERIQNAGGSVMIQRVNGSLAVSRALGDFDYKCVHGKGPTEQLVSPEPEVHDIERSEEDDQFIILACDGIWDVMGNEELCDFVRSRLEVTDDLEKVCNEVVDTCLYKGSRDNMSVILICFPNAPKVSAEAVKKEAELDKYLENRVEEIIKKQGEGVPDLVHVMRTLASENIPSLPPGGELASKRNVIEAVYNRLNPYKNDDTDSASTDDMW
modifications: left off: small tags and cut ends
notes: recombinant his-tagged alpha isoform of protein phosphatase 2C cloned from rat striatum
phospho-Ser137-DARPP-32 [1]
  divalent cation concentration for maximal activity: 4 to 5 mM
phospho-Ser137-DARPP-32 [2]
  Km: 13.1 µM
  Vmax: 0.39 µmol/mg/min
  kcat: 0.31 s⁻¹
[3]; 20 mM Mn^2+ versus 20 mM Mg^2+
  Vmax of pNPP hydrolysis, Mn^2+ compared to Mg^2+ (higher): approximately 50 fold
[3]; in the presence of 20 mM Mg^2+
  Vmax: 0.20 µmol/mg/min
  kcat: 0.16 s⁻¹
  Km: 3100 µM
[3]; in the presence of 20 mM Mn^2+
  Vmax: 7.49 µmol/mg/min
  kcat: 5.83 s⁻¹
  Km: 1530 µM
